Earlier results on one substance are cited in article PMC6188814.

In the series the target is ALDH7A1 (Homo sapiens) (UniProt P49419). Description: analytical ultracentrifugation.

Usually Kd stands for the concentration at which binding is half-saturated. As for ALDH7A1 (from UniProt P49419), the Kd is 16 µM.
